Assay: yeast display, Sf9 membrane polyspecificity reagent, FACS + sequencing; frameworks hold sequencing errors
How it was run: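 After 36–48 hours of galactose induction, yeast (Saccharomyces cerevisiae BJ5465) displaying a synthetic nanobody library were stained at 4 °C for 1 hour with 10% biotinylated, detergent-solubilized Sf9 membrane reagent. Streptavidin microbeads enriched the stained cells before FACS sorting into low and high (top ~1%) gates on anti-HA and streptavidin fluorescence. Each clone's polyreactivity label reflects its gate of origin.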

| Sequence | polyreactivity (PSR sort gate) |
| --- | --- |
| QVQLVESGGGLVQAGGSLRLSCAASGSIFYYYAMGWYRQAPGKERELVAAITSGGSTYYADSVKGRFTISRDNAKNTVYLQMNSLKPEDTAVYYCAAYGYYRGYPFHWYDYWGQGTQVTVSS | high polyreactivity |
| QVQLQESGGALVQAGGSLRLSCAASGTISDRAGMGWYRQAPAKNANVATIDRGTNTNYADSVKGRFTISRDNAKNTVYLQMNSLKPEDTAVYNCAADGRYYIYLDYWGQGTQVTVSS | low polyreactivity |
| QVQLVESGGGLVQAGGSLRLSCAASGRIFSLNTMGWYRQAPGKERELVATITKRGGNTYYADSVKGRFTISRDNAKNTVYLQMNSLKPEDTAVYYCAVPRSITYRYGYWGQGTQVTVSS | high polyreactivity |
| RVQLVESGGGLVQAGGSLRLSCAASGSIFLIYAMGWYRQAPGKERELVAAISTGDSTYYADSVKGRFTISRDNAKNTVYLQMNSLKPEDTAVYYCAADTYSYEVPWWSAGMDYWGQGTQVTVSS | high polyreactivity |
| QVQLVESGGGLVQAGGSLRLSCAASGSIFVGNTMGWYRQAPGKERELVAAITWSGGRTYYADSVKGRFTISRDNAKNNVYLQMHSLKPEDTAVYYLKALAYYIRYYYWGKGTQVTVSS | high polyreactivity |
| QVQLEESGGRLVQAGARLRLSCAASGPIFHQYAMGWYRHAPGKERELGAAISSGGGSTYYADSVKGRFTISRDNAKNTGYLQMNSLKPEDTAVYYCNVYSVRWARFDFWGQGTQVTVSS | high polyreactivity |
| QVQLVESGGGSVQAGGSLRLSCAASGFTFDKNTMGWYRQAPGKERELVAAISSSGSSTYYADSVKGRFTISRDNAKNTVYLQMNSLKPEDTAVYYCAADYWGWDDYSEYYYWGQGTQVTVSS | high polyreactivity |
| QVQLVESGGGLVQAGGSLRLSCAASGRTFYYYARGWYRQAPGKERELVAAISSRGGSTYYADSVKGRFTISRDNAKNTVYLQMNSLKPEDTAVYYCAAERYFVLYRYYSYAYYYWGQGTQVTVSS | high polyreactivity |
| QDQLVESGGGLVQAGGSLRLSCAASGRTLVGNAMGLYRQAHGKERELVAAISLSDDITYYADSVKGRFTISRDNAKKTFYLQMNSLKPEDTAVYYCAAVYPGDSDFLGSYEESDSWGQGTQVTVSS | low polyreactivity |
| QVQLVESGGGLVQAGGSLRLSCAASGSILDRNAMGWYRQAPGKERELVAAISRSRGSTYYADSVKGRFTISRDNAKNTVYLQMNSLKPEDTAVYYCNAYYPFYTLIYGGPVRYYNFDYWGQGPQVTVSS | high polyreactivity |
| QVHLVESGGGLVQAGGSLRLSSAASGRIFDRYAMGWYRQAPGKERELVAAITSRADRTYYADSLKGRFTISRDNAKNTVYLQMNSLKPEDTAVYYCNTDKKYRHRYGGILDYWGQGTEVTVSS | high polyreactivity |
| QVQLVESGGGLVQAGGSHRLSCAASGIIFRFYAMGCYRQAPGTERELVAAITSSGGSTYYADSVKGRFTISRDNAKNTVYLQMNSLNPEDTAVYYCYARVFSQSHYYYWGQGTQVTLSS | high polyreactivity |
| QVQLVDSGGGLVQAGGSLRLSCAPSGYIFPYNAMGWYRQAPGKEREFVAAITSSGGSTYYADSVKGRFTISRENAKNTVYLQMNSLKPEDTAVYYCARVPLHRYGYWGQGTQVNVSS | high polyreactivity |
| QVQLVESGGGLGQAGGSLRLSCAASGSTFEGYAMGWYRQAPGKERELVAAISSSGGRTYYADSVKGRFTISRDNAKNTVYLQMNSLKPEDTAVYYCAADVSTAAVRSDSWGQGTQVTVSS | low polyreactivity |
| QVQLVESGGSLVQEGGSLRLSCAASGRTYNVMGWDRQAPGKERELVAAITWGGGSTHYADSVKGRFTISRDNAKNTVYVQMNSLKPEDTAVYYCAADLLYKSTRVDYWGQGTQVTVSS | low polyreactivity |
| QVQLVESGGGLVQAGGSLRLSCAASGSIFATYGMGWYRQAPGKERELVAAITSSGGSTYYADSVKGRFTISRDNAKNTVYLQMNSLKPEDTAVYYCAADSYIIWYGTVVSYGEDSWGQGTQVTVSS | low polyreactivity |

| Sequence | polyreactivity (PSR sort gate) |
| --- | --- |
| QVQLVESGGGLVQAGGSLRLSCAASGRIFWTYAMGWYRQAPGKERELVASITWSGGSTYYADSVKGRFTISRDNAKNTVYLQMNSLKPEDTAVYYCHTDVLAPYDSGYWGQGTQVTVSS | low polyreactivity |
| QVQLVESGGGLGQAGGSLRLSCAASGSIFQPYAMGGYRQAPGKERELVAAISSSGGSTTYADSVKGRFTISRDNAKNTVYLQMNSLKPEDTAVYYCAAEYDGPYTWVDYFYHYGYWGQGTQVTVSS | low polyreactivity |
| QVQLVESGGGLVQAGGSLRLSCAASGSISFLYTMGWYRQAPGKERELVAAITGSTASTYYADSVKGRFTISSDYAKNTVYLQMKSLKPEDTAVYYCAAYWYAVGYWVSRDYWGQGTQVTVSS | low polyreactivity |
| QVQLVESGGGLLQAGGSLRLSCAASGSTFGYYAMGWYRQAPGKERELVAAITRSGTNTYYADSVKGRFTISRDNAKNTVYLQMNSLKPEDTAVYYCNAVSRRRSDYWGQGTQVTVSS | high polyreactivity |
| QVQLVESGGGLVQAGGSLRLSCAASGSTFRVNAMGWYRQAPGKERELVAAISYRGGSTYYADSVKGRFTISRDNAKNTVYLQMINLKPEDTAVYYCNADLKRRTYGPDSYYWGQGTQVTVSS | high polyreactivity |
| QVQLVESGGGLVQAGGSLRLSCAASGRIFFYYVMGWYRQAPGKERELVAAITRSGGSTYYADSVKGRFTISRDNAKNTVYLQMNSLKPEDTAVYYCSVGDGFEYDWGQGTQVTVSS | low polyreactivity |
| QVQLVESGGGLVQAGGSLRLSCAASGRTFGYNAMGWYRQAPGKERELVAAINDGGSTNYADSVKGRFTISRDNAKNTVYLQMNSLKPEDTAVYYCATDFSNGRQSTFPYEYYYWGQGTQVTVSS | high polyreactivity |
| QVQLVESGGGLVQAGGSLRISCAASGSIFPTYAMGWYRQAPGKERELVAAISGSGGSTYYADSVKGRFTISRDNAKNTVYFQINSLKPEDTAVYYCAVRRRRYHTYYRGYDNWGQGTQVTVSA | low polyreactivity |
| QVQLVESGVGLVQAGGSLRLSCAASGSTFANNAMGWYRQAPGKERELVAAISWSGGSTYYADSVKGRFTISRDNAKNTVYLQMNSLKPEDTAVYYCAADSPRYGGYGYWGQGTQVTLSS | low polyreactivity |
| QVQLVESGGGLVQAGGSLRLSCAASGGTSRSYAMGWYRQAPGKERELVAAISWRGGRTYYADSVKGRFTISRDNAKNTVYLQMNSLKPEDTAVYYCAARQYSQEPYDYWGQGTQVTVSS | high polyreactivity |
| QVQLLESGCGLVQAGGSLRLSCMASGSSLGDRMSWYRQAPGKEHELVATIYDGGITYYADSMKGRFTISRENAKNSVYLQMNSLRPEDTAVYYCGDSFEGYRYHVYCGQGTQVTVSS | low polyreactivity |
| QVQLVESGGGLVQAGGSLRLSCAASGSIFAAYAMGWYRQAPGKERELVAAISLDDGSTYADSVKGRFTISRDNAKNTVYLQMNSLKPEDTAVYYCNARYKSRLYPRYDYWGQGTQVTVSS | high polyreactivity |
| QVQLEESGGGLVQAGGSLRLSCAASGFIFDSYAMGWYRQAPGKERELVAAISWSGGRTYYADSVKGRFTISRDNAKNTVYLQMNSLKPEDTAVYYCNVLVHSLSGRKYDYWGQGTQVTVSS | high polyreactivity |
| QVQLVESGGGLVQAGGSLRLSCAASGRIFSTYTMGWYSQAPGKDRELVARSSWSAGRTYYADSVKGRFTISRDNAKNSVYLQMNSLKPEETAVYYCAADGYTQRGYDYWGQGTQVTVSS | high polyreactivity |
| QVQLVESGGGLVQAGGSLRLSCAASGSIFVDNAMGWYRQAPGKERELVAVITLRSGSTNYADSVKGRFTISRDNAKNTVYLQMNSLKPEDTAVYYCAADDTYHDYQRDTDDDYWGQGTQVTVSS | low polyreactivity |

From the nanobody polyreactivity screen of Harvey et al. (2022)
